Data from PMC3547798, “Binding of Nucleoid-Associated Protein Fis to DNA Is Regulated by DNA Breathing Dynamics”.

B1: FIS1 (dsDNA)
DNA 1: AAATTTGTTTGAATTTTGAGCAAATTT
DNA 2: AAATTTGCTCAAAATTCAAACAAATTT
B2: FIS2m2 (dsDNA)
DNA 1: AAATTTGTTTGGGCGCTGAGCAAATTT
DNA 2: AAATTTGCTCAGCGCCCAAACAAATTT
modifications: O6-methylguanine at nt 12 and 15 of strand 1 (positions -2, +1)

How the values were obtained:
[1] = biological target: T1, Fis (Escherichia coli DH5alpha, UniProt P0A6R3 1-98); test: EMSA; complex detectable at 0.25-0.50 uM Fis; salmon sperm DNA; 20 mM HEPES (pH not stated), 150 mM NaCl, 500 ug/mL BSA, 1 mM DTT, 0.1 mM EDTA, 0.5-1 ug/ul salmon sperm DNA, room temperature 30 min; DNA 100 nM or 500 nM-1 uM (Methods); 6% gel, 0.5x TBE; details: protein: recombinant; tags: N-terminal GST (pGEX-KG); label: 5'-biotin on forward strand; blunt
T1 sequence (P0A6R3 whole entry): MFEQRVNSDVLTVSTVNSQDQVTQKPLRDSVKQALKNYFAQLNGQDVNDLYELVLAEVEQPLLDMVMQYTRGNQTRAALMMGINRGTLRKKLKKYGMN

[2] = biological target: T1, Fis; test: EMSA; significant complex at 0.25 uM Fis, stronger than FIS2; salmon sperm DNA; 20 mM HEPES (pH not stated), 150 mM NaCl, 500 ug/mL BSA, 1 mM DTT, 0.1 mM EDTA, 0.5-1 ug/ul salmon sperm DNA, room temperature 30 min; DNA 100 nM or 500 nM-1 uM (Methods); 6% gel, 0.5x TBE; details: protein: recombinant; tags: N-terminal GST (pGEX-KG); label: 5'-biotin on forward strand; blunt

| Binder | binding result [1] | binding result [2] |
| --- | --- | --- |
| B1 | binds | – |
| B2 | – | binds |
